Data on six substances can be found in publication PMC6372009.

In assay [1] the target is mini-procollagen III. In words: SPR. Conditions: immobilized mini-procollagen III (240 RU), flow rate 50 μL/min, 25°C; for Kd: 1:1 binding model, parent: est. 1.4 nM, read off a plot.
The target of assay [2] is mini-procollagen III. As to the kind of experiment: SPR; Biacore T200; mini-procollagen III immobilised (240 RU), C1C2 wild-type or mutants injected, 50 μL/min, 25°C, 10 mM Na-Hepes pH 7.4, 0.15 M NaCl, 5 mM CaCl2, 0.05 % P20; 1:1 binding model. On the technique in general: Surface plasmon resonance follows binding to a sensor surface in real time, without labels.

For the substance “C1C2 fragment of PCPE-1, wild-type control, pCEP-Pu construct (N-terminal APLA, C-terminal …) (from UniProt Q15113) R55A; L234E”, the Kd (usually a measure of binding affinity in units of concentration) in assay [1] was 0.054 µM.
In assay [2], “C1C2 fragment of PCPE-1, Arg91Ala mutant (pCEP-Pu construct) (from UniProt Q15113 1-252) (domain or fragment)” showed a fold increase in dissociation constant against wild-type C1C2 of 50 fold.
In the case of “C1C2 fragment of PCPE-1, wild-type control, pCEP-Pu construct (N-terminal APLA, C-terminal …) (from UniProt Q15113) L234E”, in assay [1], the dissociation constant (Kd) was 0.02 µM.
With “C1C2 fragment of PCPE-1, wild-type control, pCEP-Pu construct (N-terminal APLA, C-terminal …) (from UniProt Q15113) R55A; R91A; L234E”, the equilibrium dissociation constant (Kd) in assay [1] is 0.12 µM.
As to “C1C2 fragment of PCPE-1, wild-type control, pCEP-Pu construct (N-terminal APLA, C-terminal …) (from UniProt Q15113) R91A”, the Kd in assay [1] was 0.061 µM.
Take “C1C2 fragment of PCPE-1, wild-type control, pCEP-Pu construct (N-terminal APLA, C-terminal …) (from UniProt Q15113) R55A”: in assay [1] (48 nM C1C2, response at end of association (about 100 s), parent: est. 29, read off a …), the response is 26 RU. Further, the Kd in assay [1] amounted to 0.0026 µM.
